Assay results reported in US7807788 (GlaxoSmithKline, dated 2010).
“And” between values parts separate entries of the source, which are not always exact repeats. Equal entries are not always repeated.

Columns and labels:
[1] = target: T1, recombinant E.coli-expressed human IL-4 (human, UniProt P05112 25-153); experiment: sandwich ELISA: human IL-4 captured by goat anti-human IL-4 polyclonal, titrated antibody (positive control)
T1 sequence (looked up): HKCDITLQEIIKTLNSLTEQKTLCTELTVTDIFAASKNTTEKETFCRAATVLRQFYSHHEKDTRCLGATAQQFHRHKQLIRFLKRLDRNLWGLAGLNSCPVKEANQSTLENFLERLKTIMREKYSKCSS

[2] = target: T2, recombinant E.coli-expressed cynomolgus IL-13 (cynomolgus, UniProt Q5I6E4 21-132 (Macaca thibetana entry)); experiment: cell-based or functional assay
T2 chain: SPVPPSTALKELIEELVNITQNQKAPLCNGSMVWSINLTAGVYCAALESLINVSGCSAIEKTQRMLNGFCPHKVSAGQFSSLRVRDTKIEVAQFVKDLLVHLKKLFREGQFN

[3] = target: T3, alanine-scan peptide 1 (parental sequence, no substitution) (human, N-terminal biotin); experiment: peptide ELISA: immobilised biotinylated peptide, titrated parental 6A1 (mAb named in legend paragraph 137, not on the sheet)
T3 construct: also called parental peptide
T3 peptide: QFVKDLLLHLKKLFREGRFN

alanine-scan peptide 63 = target: T4, alanine-scan peptide 63 (human, N-terminal biotin); experiment: as above
T4 construct: also called K103A peptide
T4 peptide: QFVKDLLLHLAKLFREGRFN

alanine-scan peptide 65 = target: T5, alanine-scan peptide 65 (human, N-terminal biotin); experiment: as above
T5 construct: also called L105A peptide
T5 peptide: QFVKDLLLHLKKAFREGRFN

alanine-scan peptide 66 = target: T6, alanine-scan peptide 66 (human, N-terminal biotin); experiment: as above
T6 construct: also called F106A peptide
T6 peptide: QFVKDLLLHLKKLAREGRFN

[4] = target: T7, recombinant E.coli-expressed human IL-13 (human, UniProt P35225 35-146); experiment: sandwich ELISA: E.coli-expressed human IL-13 captured by goat anti-human IL-13 polyclonal, titrated 6A1, anti-mouse IgG-HRP
T7 construct: Untagged E.coli material, bought (Cambridge Bioscience) or made in-house (CA); also called hIL-13; human IL13 (CA)

[5] = target: T7, recombinant E.coli-expressed human IL-13; experiment: cell-based or functional assay

B1: anti-human IL4 mAb (antibody, V domains shown)
VH: QVQLQQSGPELVKPGASVKISCKASGYSFTSYWIHWIKQRPGQGLEWIGMIDPSDGETRLNQRFQGRATLTVDESTSTAYMQLRSPTSEDSAVYYCTRLKEYGNYDSFYFDVWGAGTLVTVSS
VL: DIQMTQSPASLSVSVGDTITLTCHASQNIDVWLSWFQQKPGNIPKLLIYKASNLHTGVPSRFSGSGSGTGFTLTISSLQPEDIATYYCQQAHSYPFTFGGGTKLEIKR
EC50 (read off the curve) [1]: ~0.03 µg/mL

B2: mouse monoclonal antibody 6A1 (antibody, mouse IgG1, V domains shown)
VH: EIQLQQSVAELVRPGASVRLSCTASGFYIKDTYMHWVIQRPEQGLEWIGTIDPANGNTKYVPKFQGKATITADTSSNTAYLRLSSLTSEDTAIYYCARSIYDDYHYDDYYAMDYWGQGTSVTVSS
VL: DVLMTQTPLSLPVSLGDQASISCRSSQNIVHINGNTYLEWYLQKPGQSPKLLIYKISDRFSGVPDRFSGSGSGTDFTLKISRVEAEDLGVYYCFQGSHVPWTFGGGTKLEIK
notes: Murine IgG1/kappa from hybridoma; also called mAb 6A1; 6A1 parental mAb
Mean ND50 for 2 assays, TF-1 bioassay [2]: 0.078 µg/mL
EC50 (read off the curve) [3]: ~0.02 µg/mL and ~0.03 µg/mL
EC50 (read off the curve) (alanine-scan peptide 63): ~0.02 µg/mL
EC50 (read off the curve) (alanine-scan peptide 65): ~0.03 µg/mL
EC50 (read off the curve) (alanine-scan peptide 66): ~0.03 µg/mL
EC50 (read off the curve) [4]: ~0.03 µg/mL

B3: chimaeric 6A1 monoclonal antibody (antibody, human IgG1, V domains shown)
VH: EIQLQQSVAELVRPGASVRLSCTASGFYIKDTYMHWVIQRPEQGLEWIGTIDPANGNTKYVPKFQGKATITADTSSNTAYLRLSSLTSEDTAIYYCARSIYDDYHYDDYYAMDYWGQGTSVTVSS
VL: DVLMTQTPLSLPVSLGDQASISCRSSQNIVHINGNTYLEWYLQKPGQSPKLLIYKISDRFSGVPDRFSGSGSGTDFTLKISRVEAEDLGVYYCFQGSHVPWTFGGGTKLEIK
Mean ND50 for 2 assays, TF-1 bioassay [5]: 0.119 µg/mL
